Here are results for 1 molecule from patent US20120207721A1 (AARHUS UNIVERSITET, published 2012).

For this experiment, the target named is T1, soluble insulin receptor (IR) (R&D systems, 28-956) (UniProt P06213 28-956).
T1 construct: extracellular domain; Bought protein, coupled to a CM5 chip by NHS/EDC; It may be the same product as m8; also called soluble IR; immobilized soluble insulin receptor
Kind of experiment: SPR (Biacore), soluble IR coupled to CM5 chip, soluble SorCS1 as analyte. A general note: Surface plasmon resonance follows binding to a sensor surface in real time, without labels.

B1: soluble full-length extracellular part of SorCS1 (receptor)
chain: SGADQEKAERGEGASRSPRGVLRDGGQQEPGTRERDPDKATRFRMEELRLTSTTFALTGDSAHNQAMVHWSGHNSSVILILTKLYDYNLGSITESSLWRSTDYGTTYEKLNDKVGLKTILSYLYVCPTNKRKIMLLTDPEIESSLLISSDEGATYQKYRLNFYIQSLLFHPKQEDWILAYSQDQKLYSSAEFGRRWQLIQEGVVPNRFYWSVMGSNKEPDLVHLEARTVDGHSHYLTCRMQNCTEANRNQPFPGYIDPDSLIVQDHYVFVQLTSGGRPHYYVSYRRNAFAQMKLPKYALPKDMHVISTDENQVFAAVQEWNQNDTYNLYISDTRGVYFTLALENVQSSRGPEGNIMIDLYEVAGIKGMFLANKKIDNQVKTFITYNKGRDWRLLQAPDTDLRGDPVHCLLPYCSLHLHLKVSENPYTSGIIASKDTAPSIIVASGNIGSELSDTDISMFVSSDAGNTWRQIFEEEHSVLYLDQGGVLVAMKHTSLPIRHLWLSFDEGRSWSKYSFTSIPLFVDGVLGEPGEETLIMTVFGHFSHRSEWQLVKVDYKSIFDRRCAEEDYRPWQLHSQGEACIMGAKRIYKKRKSERKCMQGKYAGAMESEPCVCTEADFDCDYGYERHSNGQCLPAFWFNPSSLSKDCSLGQSYLNSTGYRKVVSNNCTDGVREQYTAKPQKCPGKAPRGLRIVTADGKLTAEQGHNVTLMVQLEEGDVQRTLIQVDFGDGIAVSYVNLSSMEDGIKHVYQNVGIFRVTVQVDNSLGSDSAVLYLHVTCPLEHVHLSLPFVTTKNKEVNATAVLWPSQVGTLTYVWWYGNNTEPLITLEGSISFRFTSEGMNTITVQVSAGNAILQDTKTIAVYEEFRSLRLSFSPNLDDYNPDIPEWRRDIGRVIKKSLVEATGVPGQHILVAVLPGLPTTAELFVLPYQDPAGENKRSTDDLEQISELLIHTLNQNSVHFELKPGVRVLVHAAHLTAAPLVDLTPTHSG
In general, Kd refers to the constant that tells how readily two partners part at equilibrium. Low values mean a tighter complex, high ones a looser complex. B1: the Kd is about 5 nM.
